These results are taken from publication PMC8257661.

B1: Junin virus (JUNV) Z protein (natural protein)
chain: MGNCNGASKSNQPDSSRVTQPAAEFRRVAHSSLYGRYNCKCCWFADTNLITCNDHYLCLRCHQVMLRNSDLCNICWKPLPTTITVPVEPTAPPP

The target in this experiment is Junin virus (JUNV) L protein (Junin virus (JUNV)). Briefly: MST; […] (20–[…]); […]; 50 mM HEPES pH 7.8, 500 mM NaCl, 1 mM TCEP; […].
As a reminder, the Kd is the free concentration of one partner at which half of the binding sites on the other are occupied at equilibrium, for simple one-to-one binding. Regarding Z (AA 18–47) peptide of JUNV Z protein, the Kd was found to be 863 nM.

Z (AA 48–78) peptide of JUNV Z protein: the Kd came out at 1150 nM.

Molecule B1 showed a dissociation constant (Kd) of 393 nM.
